From patent US20150125477A1 (IMMATICS BIOTECHNOLOGIES, published 2015)

Target: T1, A*0201 (biotinylated pMHC monomer from UV-induced MHC ligand exchange) (human, biotin)
T1 construct: pMHC complexes for aAPC loading and multimer read-out
Assay: pMHC complex from UV-induced MHC ligand exchange, used as control
Method: Generation of pMHC/anti-CD28 coated beads, T-cell stimulations and readout was performed in a highly defined in vitro system using four different pMHC molecules per stimulation condition and 8 different pMHC molecules per readout condition. […] In order to determine the amount of pMHC monomer obtained by exchange we performed streptavidin-based sandwich ELISAs according to (Rodenko et al., 2006). The purified co-stimulatory mouse IgG2a anti human CD28 Ab 9.3 (Jung et al., 1987) was chemically biotinylated using Sulfo-N-hydroxysuccinimidobiotin as recommended by the manufacturer (Perbio, Bonn, Germany). Beads used were 5.6 μm diameter streptavidin coated polystyrene particles (Bangs Laboratories, Illinois, USA).
Half of the medium was then exchanged by fresh TCM supplemented with 80 U/ml IL-2 and incubating was continued for 3-4 days at 37° C. […] Finally, multimeric analyses were performed by staining the cells with Live/dead near IR dye (Invitrogen, Karlsruhe, Germany), CD8-FITC antibody clone SK1 (BD, Heidelberg, Germany) and fluorescent pMHC multimers. For analysis, a BD LSRII SORP cytometer equipped with appropriate lasers and filters was used. Peptide specific cells were calculated as percentage of total CD8+ cells. Evaluation of multimeric analysis was done using the FlowJo software (Tree Star, Oregon, USA).

binding result: binds
Binder: YLLPAIVHI (control for low immunogenic stimulation) [DDX5-001]
